± gives the standard error. Fewer inactive variants are shown than the library holds.
B1: glmS ribozyme (parent)
chain: AUAAAAGCGCCAGAACUACAGAAAUGUAGUUGACGAGGAGGAGGUUUAUCGAAUUUUCGGCGGAUGCCUCCAAA

How the values were obtained:
Conditions in all cases: with glucosamine-6-phosphate
glucosamine-6-phosphate [1] = variants of: B1; assay: self-cleavage kobs at 40 uM GlcN6P; higher = faster cleavage; RNA array
Method in brief: (§1)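 Barcoded ribozyme variants were transcribed in situ on sequenced MiSeq chips by E. coli RNA polymerase. At 37 °C, a hybridised Cy3 probe tracked them while glucosamine-6-phosphate (40 μM to 10 mM) in HEPES/KCl/Mg(OAc)2 buffer flowed in and tiles were imaged over ~14 h. Per-tile medians of signals normalised to baseline and to non-cleaving reference variants were fit to one- or two-exponential decays, giving kobs. kcat and KM came from weighted Michaelis–Menten fits across concentrations.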

glucosamine-6-phosphate [2] = variants of: B1; assay: self-cleavage kobs at 160 uM GlcN6P; higher = faster cleavage; RNA array
Method in brief: as §1

glucosamine-6-phosphate [3] = variants of: B1; assay: self-cleavage kobs at 640 uM GlcN6P; higher = faster cleavage; RNA array
Method in brief: as §1

glucosamine-6-phosphate [4] = variants of: B1; assay: self-cleavage kobs at 2500 uM GlcN6P; higher = faster cleavage; RNA array
Method in brief: as §1

glucosamine-6-phosphate [5] = variants of: B1; assay: self-cleavage kobs at 10000 uM GlcN6P; higher = faster cleavage; RNA array
Method in brief: as §1

Variant: AUAAAAGCGCCAGAAGUACAUAAAUGUAGUUGACGAGGAGGAGGUUUAUCGAAUUUUCGGCGGAUGCCUCCAAA [C16G G21U]
- self-cleavage kobs at 40 uM GlcN6P (glucosamine-6-phosphate [1]): 0.00012 ± 5.7e-05 s⁻¹

Variant: AUAAAUGCGCCAGAACUACAGAAAUGUAGUUGACGAGAAGGAGGUUUAUCGAAUUUUCGGCGGAUGCCUCCAAA [A6U G38A]
- self-cleavage kobs at 40 uM GlcN6P (glucosamine-6-phosphate [1]): < 1e-05 s⁻¹

Variant: AUAAAAGCGCCAGAACUACAGAAAUGUAGUUGACGAGGAGGAGGUUUAUAGAAUUUUCGGCUAAUGCCUCCAAA [C50A G62U G63A]
- self-cleavage kobs at 40 uM GlcN6P (glucosamine-6-phosphate [1]): < 1e-05 s⁻¹
- self-cleavage kobs at 160 uM GlcN6P (glucosamine-6-phosphate [2]): < 1e-05 s⁻¹
- self-cleavage kobs at 640 uM GlcN6P (glucosamine-6-phosphate [3]): < 1e-05 s⁻¹
- self-cleavage kobs at 2500 uM GlcN6P (glucosamine-6-phosphate [4]): < 1e-05 s⁻¹
- self-cleavage kobs at 10000 uM GlcN6P (glucosamine-6-phosphate [5]): < 1e-05 s⁻¹

Variant: AUAAAAGCGCCAAAACUACAGAAAUGUAGUUGACGAGGAGGAGGUUUAUCGAAUUUUCGGCAGAUGCCUCCAAA [G13A G62A]
- self-cleavage kobs at 40 uM GlcN6P (glucosamine-6-phosphate [1]): < 1e-05 s⁻¹
- self-cleavage kobs at 160 uM GlcN6P (glucosamine-6-phosphate [2]): < 1e-05 s⁻¹
- self-cleavage kobs at 640 uM GlcN6P (glucosamine-6-phosphate [3]): < 1e-05 s⁻¹
- self-cleavage kobs at 2500 uM GlcN6P (glucosamine-6-phosphate [4]): < 1e-05 s⁻¹
- self-cleavage kobs at 10000 uM GlcN6P (glucosamine-6-phosphate [5]): < 1e-05 s⁻¹

Variant: AUAAAAGCGCCAGAACUACAGAAAUGUAGUUGACGAGGAGGAGGUUUAUCGCAUUUUCGGCUGAUGCCUCAAAA [A52C G62U C71A]
- self-cleavage kobs at 40 uM GlcN6P (glucosamine-6-phosphate [1]): < 1e-05 s⁻¹
- self-cleavage kobs at 2500 uM GlcN6P (glucosamine-6-phosphate [4]): < 1e-05 s⁻¹

Variant: AUAAAAGAGCCAGAACUACAGAAAUGUAGUUGACGAGGAGGAGGUUUAUCGAAUUUUCGGCGGAUUCCUCCAAA [C8A G66U]
- self-cleavage kobs at 40 uM GlcN6P (glucosamine-6-phosphate [1]): < 1e-05 s⁻¹
- self-cleavage kobs at 160 uM GlcN6P (glucosamine-6-phosphate [2]): < 1e-05 s⁻¹
- self-cleavage kobs at 2500 uM GlcN6P (glucosamine-6-phosphate [4]): < 1e-05 s⁻¹

Variant: AUAAAAGCACCAGAACUACAGAAAUGUAGUUGACGAGGAGGAGGUUUAUCGAAUCUUCGGCGGAUGCCUCAAAA [G9A U55C C71A]
- self-cleavage kobs at 40 uM GlcN6P (glucosamine-6-phosphate [1]): < 1e-05 s⁻¹
- self-cleavage kobs at 640 uM GlcN6P (glucosamine-6-phosphate [3]): < 1e-05 s⁻¹
- self-cleavage kobs at 2500 uM GlcN6P (glucosamine-6-phosphate [4]): < 1e-05 s⁻¹

Variant: AUAAAAGCGCCAGAACUACAGAAAUGUAGGGGACGAGGAGGAGGUGUAUCGAAUAUUCGGCGGAUGCCUCCAAA [U30G U31G U46G U55A]
- self-cleavage kobs at 40 uM GlcN6P (glucosamine-6-phosphate [1]): 0.000118 ± 3.3e-05 s⁻¹
- self-cleavage kobs at 10000 uM GlcN6P (glucosamine-6-phosphate [5]): 0.00358 ± 0.00067 s⁻¹

Variant: AUAAAAGAGCCAGAACUACAGAAAUGUAGUUGACGAGGAGGAGGUUUAUCGAAUUUUCGGCGGAUGUCUCCAAA [C8A C67U]
- self-cleavage kobs at 40 uM GlcN6P (glucosamine-6-phosphate [1]): < 1e-05 s⁻¹
- self-cleavage kobs at 160 uM GlcN6P (glucosamine-6-phosphate [2]): < 1e-05 s⁻¹
- self-cleavage kobs at 640 uM GlcN6P (glucosamine-6-phosphate [3]): < 1e-05 s⁻¹
- self-cleavage kobs at 10000 uM GlcN6P (glucosamine-6-phosphate [5]): < 1e-05 s⁻¹

Variant: AUAAAAGCGCCAGAACUACAGAAAUGUAGUUGACGAGGAGGAGGUUUUUCGAAUUUUCGGCGUAUGCCUCCAAA [A48U G63U]
- self-cleavage kobs at 40 uM GlcN6P (glucosamine-6-phosphate [1]): < 1e-05 s⁻¹
- self-cleavage kobs at 160 uM GlcN6P (glucosamine-6-phosphate [2]): < 1e-05 s⁻¹
- self-cleavage kobs at 640 uM GlcN6P (glucosamine-6-phosphate [3]): < 1e-05 s⁻¹
- self-cleavage kobs at 2500 uM GlcN6P (glucosamine-6-phosphate [4]): < 1e-05 s⁻¹
- self-cleavage kobs at 10000 uM GlcN6P (glucosamine-6-phosphate [5]): < 1e-05 s⁻¹

Variant: AUAAAAGCGUCGGAACUACAGAAAUGUAGUUUACGUGGAGGAGGUUUAUCGAAUUUUCGGCGGAUGCCUUCAAA [C10U A12G G32U A36U C70U]
- self-cleavage kobs at 40 uM GlcN6P (glucosamine-6-phosphate [1]): < 1e-05 s⁻¹

Variant: AUAAAAUCGCCAGAACUACAGAAAUGUACUUGACGAGGAGGAGGUUUAUCGAAUUUUCGGUGGAUGCCUCCAAA [G7U G29C C61U]
- self-cleavage kobs at 40 uM GlcN6P (glucosamine-6-phosphate [1]): < 1e-05 s⁻¹

Variant: AUAAAAGCGCCAGAACUACAGAAAUGUAGUUGACGAGGAGGAGUUUUAUCGAAUUUUGGGCGGAUGCUUCCAAA [G44U C58G C68U]
- self-cleavage kobs at 40 uM GlcN6P (glucosamine-6-phosphate [1]): < 1e-05 s⁻¹
- self-cleavage kobs at 160 uM GlcN6P (glucosamine-6-phosphate [2]): < 1e-05 s⁻¹
- self-cleavage kobs at 640 uM GlcN6P (glucosamine-6-phosphate [3]): < 1e-05 s⁻¹
- self-cleavage kobs at 2500 uM GlcN6P (glucosamine-6-phosphate [4]): < 1e-05 s⁻¹
- self-cleavage kobs at 10000 uM GlcN6P (glucosamine-6-phosphate [5]): < 1e-05 s⁻¹

From the supplement of paper PMC7125110
